Where two headings read alike, the source gives them in different places.
T1: human TNFR1 (human, UniProt P19438)
T1 chain: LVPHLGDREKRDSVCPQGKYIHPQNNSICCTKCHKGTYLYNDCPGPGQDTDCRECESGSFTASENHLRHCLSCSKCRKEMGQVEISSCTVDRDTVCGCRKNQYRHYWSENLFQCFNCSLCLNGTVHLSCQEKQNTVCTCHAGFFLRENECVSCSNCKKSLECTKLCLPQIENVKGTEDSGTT

B1: DOM1H-131-206 P14A + C-terminal ASTKG (antibody, V domains shown)
VH: EVQLLESGGGLVQAGGSLRLSCAASGFTFAHETMVWVRQAPGKGLEWVSHIPPDGQDPFYADSVKGRFTISRDNSKNTLYLQMNSLRAEDTAVYHCALLPKRGPWFDYWGQGTLVTVSS
B2: DOM1H-131-206 P41A (antibody, V domains shown)
VH: EVQLLESGGGLVQPGGSLRLSCAASGFTFAHETMVWVRQAAGKGLEWVSHIPPDGQDPFYADSVKGRFTISRDNSKNTLYLQMNSLRAEDTAVYHCALLPKRGPWFDYWGQGTLVTVSS
B3: DOM1H-131-206 P14K (antibody, V domains shown)
VH: EVQLLESGGGLVQKGGSLRLSCAASGFTFAHETMVWVRQAPGKGLEWVSHIPPDGQDPFYADSVKGRFTISRDNSKNTLYLQMNSLRAEDTAVYHCALLPKRGPWFDYWGQGTLVTVSS
B4: DOM1H-131-206 P14E (antibody, V domains shown)
VH: EVQLLESGGGLVQEGGSLRLSCAASGFTFAHETMVWVRQAPGKGLEWVSHIPPDGQDPFYADSVKGRFTISRDNSKNTLYLQMNSLRAEDTAVYHCALLPKRGPWFDYWGQGTLVTVSS
B5: DOM1H-131-206 C-terminal ASTK (antibody, V domains shown)
VH: EVQLLESGGGLVQPGGSLRLSCAASGFTFAHETMVWVRQAPGKGLEWVSHIPPDGQDPFYADSVKGRFTISRDNSKNTLYLQMNSLRAEDTAVYHCALLPKRGPWFDYWGQGTLVTVSS
B6: DOM1H-131-206 C-terminal ASTKGP (antibody, V domains shown)
VH: EVQLLESGGGLVQPGGSLRLSCAASGFTFAHETMVWVRQAPGKGLEWVSHIPPDGQDPFYADSVKGRFTISRDNSKNTLYLQMNSLRAEDTAVYHCALLPKRGPWFDYWGQGTLVTVSS
B7: DOM1H-131-206 P14T + C-terminal ASTKG (antibody, V domains shown)
VH: EVQLLESGGGLVQTGGSLRLSCAASGFTFAHETMVWVRQAPGKGLEWVSHIPPDGQDPFYADSVKGRFTISRDNSKNTLYLQMNSLRAEDTAVYHCALLPKRGPWFDYWGQGTLVTVSS
B8: DOM1H-131-206 P14Q + C-terminal A (antibody, V domains shown)
VH: EVQLLESGGGLVQQGGSLRLSCAASGFTFAHETMVWVRQAPGKGLEWVSHIPPDGQDPFYADSVKGRFTISRDNSKNTLYLQMNSLRAEDTAVYHCALLPKRGPWFDYWGQGTLVTVSS
B9: DOM1H-131-206 G44E (antibody, V domains shown)
VH: EVQLLESGGGLVQPGGSLRLSCAASGFTFAHETMVWVRQAPGKELEWVSHIPPDGQDPFYADSVKGRFTISRDNSKNTLYLQMNSLRAEDTAVYHCALLPKRGPWFDYWGQGTLVTVSS
B10: DOM1H-131-206 P14A + C-terminal A (antibody, V domains shown)
VH: EVQLLESGGGLVQAGGSLRLSCAASGFTFAHETMVWVRQAPGKGLEWVSHIPPDGQDPFYADSVKGRFTISRDNSKNTLYLQMNSLRAEDTAVYHCALLPKRGPWFDYWGQGTLVTVSS
B11: DOM1H-131-206 P14K + C-terminal ASTKG (antibody, V domains shown)
VH: EVQLLESGGGLVQKGGSLRLSCAASGFTFAHETMVWVRQAPGKGLEWVSHIPPDGQDPFYADSVKGRFTISRDNSKNTLYLQMNSLRAEDTAVYHCALLPKRGPWFDYWGQGTLVTVSS
B12: DOM1H-131-206 C-terminal A (antibody, V domains shown)
VH: EVQLLESGGGLVQPGGSLRLSCAASGFTFAHETMVWVRQAPGKGLEWVSHIPPDGQDPFYADSVKGRFTISRDNSKNTLYLQMNSLRAEDTAVYHCALLPKRGPWFDYWGQGTLVTVSS
B13: DOM1H-131-206 Q13A (antibody, V domains shown)
VH: EVQLLESGGGLVAPGGSLRLSCAASGFTFAHETMVWVRQAPGKGLEWVSHIPPDGQDPFYADSVKGRFTISRDNSKNTLYLQMNSLRAEDTAVYHCALLPKRGPWFDYWGQGTLVTVSS
B14: DOM1H-131-206 P14K + C-terminal A (antibody, V domains shown)
VH: EVQLLESGGGLVQKGGSLRLSCAASGFTFAHETMVWVRQAPGKGLEWVSHIPPDGQDPFYADSVKGRFTISRDNSKNTLYLQMNSLRAEDTAVYHCALLPKRGPWFDYWGQGTLVTVSS
B15: DOM1H-131-206 C-terminal ASTKG (antibody, V domains shown)
VH: EVQLLESGGGLVQPGGSLRLSCAASGFTFAHETMVWVRQAPGKGLEWVSHIPPDGQDPFYADSVKGRFTISRDNSKNTLYLQMNSLRAEDTAVYHCALLPKRGPWFDYWGQGTLVTVSS
B16: DOM1H-131-206 P14A (antibody, V domains shown)
VH: EVQLLESGGGLVQAGGSLRLSCAASGFTFAHETMVWVRQAPGKGLEWVSHIPPDGQDPFYADSVKGRFTISRDNSKNTLYLQMNSLRAEDTAVYHCALLPKRGPWFDYWGQGTLVTVSS
B17: DOM1H-131-206 (antibody, V domains shown)
VH: EVQLLESGGGLVQPGGSLRLSCAASGFTFAHETMVWVRQAPGKGLEWVSHIPPDGQDPFYADSVKGRFTISRDNSKNTLYLQMNSLRAEDTAVYHCALLPKRGPWFDYWGQGTLVTVSS
B18: DOM1H-131-206 P14A, G44E (antibody, V domains shown)
VH: EVQLLESGGGLVQAGGSLRLSCAASGFTFAHETMVWVRQAPGKELEWVSHIPPDGQDPFYADSVKGRFTISRDNSKNTLYLQMNSLRAEDTAVYHCALLPKRGPWFDYWGQGTLVTVSS
B19: DOM1H-131-206 K43A (antibody, V domains shown)
VH: EVQLLESGGGLVQPGGSLRLSCAASGFTFAHETMVWVRQAPGAGLEWVSHIPPDGQDPFYADSVKGRFTISRDNSKNTLYLQMNSLRAEDTAVYHCALLPKRGPWFDYWGQGTLVTVSS
B20: DOM1H-131-206 L11A (antibody, V domains shown)
VH: EVQLLESGGGAVQPGGSLRLSCAASGFTFAHETMVWVRQAPGKGLEWVSHIPPDGQDPFYADSVKGRFTISRDNSKNTLYLQMNSLRAEDTAVYHCALLPKRGPWFDYWGQGTLVTVSS
B21: DOM1H-131-206 P14T + C-terminal A (antibody, V domains shown)
VH: EVQLLESGGGLVQTGGSLRLSCAASGFTFAHETMVWVRQAPGKGLEWVSHIPPDGQDPFYADSVKGRFTISRDNSKNTLYLQMNSLRAEDTAVYHCALLPKRGPWFDYWGQGTLVTVSS
B22: DOM1H-131-206 P14Q + C-terminal ASTKG (antibody, V domains shown)
VH: EVQLLESGGGLVQQGGSLRLSCAASGFTFAHETMVWVRQAPGKGLEWVSHIPPDGQDPFYADSVKGRFTISRDNSKNTLYLQMNSLRAEDTAVYHCALLPKRGPWFDYWGQGTLVTVSS
B23: DOM1H-131-206 P14Q (antibody, V domains shown)
VH: EVQLLESGGGLVQQGGSLRLSCAASGFTFAHETMVWVRQAPGKGLEWVSHIPPDGQDPFYADSVKGRFTISRDNSKNTLYLQMNSLRAEDTAVYHCALLPKRGPWFDYWGQGTLVTVSS
B24: DOM1H-131-206 C-terminal AST (antibody, V domains shown)
VH: EVQLLESGGGLVQPGGSLRLSCAASGFTFAHETMVWVRQAPGKGLEWVSHIPPDGQDPFYADSVKGRFTISRDNSKNTLYLQMNSLRAEDTAVYHCALLPKRGPWFDYWGQGTLVTVSS
B25: DOM1H-131-206 P14T (antibody, V domains shown)
VH: EVQLLESGGGLVQTGGSLRLSCAASGFTFAHETMVWVRQAPGKGLEWVSHIPPDGQDPFYADSVKGRFTISRDNSKNTLYLQMNSLRAEDTAVYHCALLPKRGPWFDYWGQGTLVTVSS
B26: DOM1H-131-206 C-terminal S deletion (antibody, V domains shown)
VH: EVQLLESGGGLVQPGGSLRLSCAASGFTFAHETMVWVRQAPGKGLEWVSHIPPDGQDPFYADSVKGRFTISRDNSKNTLYLQMNSLRAEDTAVYHCALLPKRGPWFDYWGQGTLVTVS
B27: VEGF165 (protein)
chain: APMAEGGGQNHHEVVKFMDVYQRSYCHPIETLVDIFQEYPDEIEYIFKPSCVPLMRCGGCCNDEGLECVPTEESNITMQIMRIKPHQGQHIGEMSFLQHNKCECRPKKDRARQENPCGPCSERRKHLFVQDPQTCKCSCKNTDSRCKARQLELNERTCRCDKPRR

How the values were obtained:
human TNFR1 [1] = target: T1, human TNFR1; assay: ELISA
human TNFR1 [2] = target: T1, human TNFR1; assay: ELISA
human TNFR1 [3] = target: T1, human TNFR1; assay: ELISA
human TNFR1 [4] = target: T1, human TNFR1; assay: SPR
DMS30038-R (DMS30051) = DMS30038-R (DMS30051) (human); assay: SPR 37C

Binder	EC50 (human TNFR1 [1])	EC50 (human TNFR1 [3])	also measured
B1	1470 pM	–	EC50 (human TNFR1 [2]): 4640 pM
B2	–	590 pM	–
B3	720 pM	–	–
B4	640 pM	–	–
B5	–	1590 pM	–
B6	–	11900 pM	–
B7	720 pM	–	–
B8	460 pM	–	–
B9	–	860 pM	–
B10	570 pM	–	EC50 (human TNFR1 [2]): 2220 pM
B11	480 pM	–	–
B12	–	1210 pM	Kd (human TNFR1 [4]): 25.3 pM; EC50 (human TNFR1 [2]): 2710 pM
B13	–	1750 pM	–
B14	460 pM	–	–
B15	–	1110 pM	EC50 (human TNFR1 [2]): 1900 pM
B16	–	1220 pM	–
B17	670 pM	1990 pM	Kd (human TNFR1 [4]): 14.3 pM; EC50 (human TNFR1 [2]): 1970 pM
B18	–	2030 pM	–
B19	–	670 pM	–
B20	510 pM	–	–
B21	660 pM	–	–
B22	1100 pM	–	–
B23	910 pM	–	–
B24	1990 pM	–	–
B25	770 pM	–	–
B26	500 pM	–	–
B27	–	–	Kd (DMS30038-R (DMS30051)): 0.00431 pM
